Results on 41 sequences are retold here after the nanobody polyreactivity screen of Harvey et al. (2022).

The data set can be described thus: yeast display, Sf9 membrane polyspecificity reagent, FACS + sequencing; frameworks hold sequencing errors. In short, it runs like this: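 Galactose induction of a Saccharomyces cerevisiae BJ5465 synthetic nanobody display library ran 36–48 hours. The cells were then stained for 1 hour at 4 °C with 10% biotinylated, detergent-solubilized Sf9 membrane reagent, pulled down on streptavidin microbeads and FACS-sorted into low and high (top ~1%) gates on expression and reagent-binding fluorescence. Labels for polyreactivity follow the gate of origin.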
Consider “QVQLVESGGGLVQAGGSLRLSCAASGRTFNSNAMGWYRQAPGKERELVAAISGRTGRTYYADSVKGRFTISRDNAKNTVYLQMNSLKPEDTAVYYCATGTYAAAQGTRYYYWGQGTQVTVSS”, for which the “polyreactivity (PSR sort gate)” value is recorded as “high polyreactivity”.

As for “QVQLVESGGGLVQAGGSLRLSCAASGRTFNSYAMGWYRPAPGKERELVATISSRGGNTFYADSVKGRFTISRDYAKNTVYLQMNRLKPEDTAVYYCAKPGYLRPSRYDYWGQGTQVTVSS”, the “polyreactivity (PSR sort gate)” value was “high polyreactivity”.

Regarding “QVQLVESGGGLVQAGGSLRLSCAASGRTFNTNAMGWYRQAPGKERELVAAITRSGDSTYYADSVKGRFTISRDNAKNTVYLQMNSLKPEDTAVYYCAAYSRTLYPDRYYWGHGTQVTVSS”, the “polyreactivity (PSR sort gate)” value is given as “high polyreactivity”.

For the sequence “QVQLVESGGGLVQAGGSLRLSCAASGRTFNTYTMGWYRQAPGKERELVAAITGTGGSTFYADSVKGRFTISRDNAKNTVYLQMNSLKPEDTAVYYCNADLEGTIGVYTDGFDSDYWGQGTQVTVSS”, the “polyreactivity (PSR sort gate)” value is “low polyreactivity”.

As to “QVQLVESGGGLVQAGGSLRLSCAASGRTFNVNVMGWSRQAPGKERELVAAIRYTGGSTYADSVKGRFTISRDNAKNTVYLQMNSLKPEDTAVYYCNADTFFPFDHGMDYWGQGTQVTVSS”, the “polyreactivity (PSR sort gate)” value is reported as “low polyreactivity”.

With “QVQLVESGGGLVQAGGSLRLSCAASGRTFNVNVMGWYRQAPGKERELVAAIRYTGGSTYADSVKGRFTISRDNAKNTVYLQMNSLKPEDTAVYYCNADTFFPFDHGMDYWGQGTQVTVSS”, the “polyreactivity (PSR sort gate)” value is “low polyreactivity”.

Regarding “QVQLVESGGGLVQAGGSLRLSCAASGRTFNVYAMGWYRQAPGKERELVAGISSSGGSTYYADSVKGRFTISRDNAKNTVYLQMNSLKPEDTAVYYCNTVYKYHGVRPYGYWGQGTQVTVSS”, the “polyreactivity (PSR sort gate)” value was “high polyreactivity”.

With “QVQLVESGGGLVQAGGSLRLSCAASGRTFNWNAMGWYRQAPGKERELVAAITSGGSTYNADSVKGLFTISRDNAKNTVYLQMNSLKPEDTAVYYCAGRINFYRSKYYYWGQGTQVTVSS”, the “polyreactivity (PSR sort gate)” value is listed as “high polyreactivity”.

As for “QVQLVESGGGLVQAGGSLRLSCAASGRTFNWYAMGWYRQAPGKERELVAAITQSGGITSYADSVKGRFTISRDNAKNTVYLQMNSLKPEDTAVYYCATTSRYSRSHYDWYDYWGQGTQVTVSS”, the “polyreactivity (PSR sort gate)” value is recorded as “low polyreactivity”.

As for “QVQLVESGGGLVQAGGSLRLSCAASGRTFNYYAMGWYRQAPGKERELVAAISSRGGTYYADSVKGRFTISRDNAKNTVYLQMNSLKPEDTAVYYCNAVHYDTISDYWGQGTQVTVSS”, the “polyreactivity (PSR sort gate)” value is listed as “high polyreactivity”.

Take “QVQLVESGGGLVQAGGSLRLSCAASGRTFNYYVMGWYRRAPGKERELVAAITWRGGRTYADSVKGRFTISRDNAKNTVYLQMNSLKPEDTAVYYCAAYTTKGYGYWGQGTQVTVSS”: the “polyreactivity (PSR sort gate)” value is reported as “high polyreactivity”.

As for “QVQLVESGGGLVQAGGSLRLSCAASGRTFPAYAMGWYRQAPGKERELVAAISSSGSRTYYADSVKGRFTISRDNAKNTVYLQMNSLKPEDTAVYYCAARGGRRQKVNRDDYWGQGTQVTVSS”, the “polyreactivity (PSR sort gate)” value is “high polyreactivity”.

As to “QVQLVESGGGLVQAGGSLRLSCAASGRTFPFYAMGWYRQAPGKERELVAAINSGGITNYADSVKGRFTISRDNAKNTVYLQMNSLKPEDTAVYYCAAKTAFYRERGYWGQGTQVTVSS”, the “polyreactivity (PSR sort gate)” value is listed as “low polyreactivity”.

Regarding “QVQLVESGGGLVQAGGSLRLSCAASGRTFPGNAMGWSRQAPGKERELVATITWSSGRTHYADSVKGRFTISRDNAKNTVYLQMNSLKPEDTAVYYCAAKWIVAVGGFYYWGQGTQVTVSS”, the “polyreactivity (PSR sort gate)” value is “low polyreactivity”.

For the sequence “QVQLVESGGGLVQAGGSLRLSCAASGRTFPGTAMGWYRQAPGKVRELVAAISSSGGSTHYADSVKGRFTISRDTAKNTVYYQMNSLKPEDTAVYYCNTVYAVWYKLDYWGQGTQVTVSS”, the “polyreactivity (PSR sort gate)” value is given as “high polyreactivity”.

As for “QVQLVESGGGLVQAGGSLRLSCAASGRTFPGYAMGCYRQAPGKERELVATITFSDGSTYYADSVKGRFTISRDNAKITVYLQMNSLKPEDTAVYYCNARRSYFLRYGVNYWGQGTQVTVST”, the “polyreactivity (PSR sort gate)” value is given as “low polyreactivity”.

Consider “QVQLVESGGGLVQAGGSLRLSCAASGRTFPGYAMGWYRQAPGKERELVAAITSSGDDTYYADSVKGRFTISRDNAKNTVYLQMYSLKPEDTAVYYCRLFRRSADSSFDYEYWGQGTQVTVSS”, for which the “polyreactivity (PSR sort gate)” value was “low polyreactivity”.

In the case of “QVQLVESGGGLVQAGGSLRLSCAASGRTFPGYAMGWYRQAPGKERELVATITGNGGSTYYADSVKGRFTISRDNAKNTVYLQMNSLKPEDTAVYYCAAGRRRPYVRAYRGTDYWGQGTQVTVSS”, the “polyreactivity (PSR sort gate)” value is on record as “low polyreactivity”.

Regarding “QVQLVESGGGLVQAGGSLRLSCAASGRTFPGYTMGWSRQAPGKERELVAAISYSGGSTYYADSVKGRFTISRDNAKNTVYLQMYSLKPEDTAVYYCAAAYDRQRRYSWVGERYYWGQGTQVTVSS”, the “polyreactivity (PSR sort gate)” value is given as “high polyreactivity”.

Regarding “QVQLVESGGGLVQAGGSLRLSCAASGRTFPLNAMGWFRQAPGKERELVAAITWSGGRTYYADSVKGRFTISRDNAKNTVYLQMNSLKPEDTAVYYCAAKRTTWKIQSGYDYWGQGTQVTVSS”, the “polyreactivity (PSR sort gate)” value is listed as “low polyreactivity”.

For the sequence “QVQLVESGGGLVQAGGSLRLSCAASGRTFPLYAMGWYRQAPGKERELVAAISWSGGSTYYADSVKGRFTISRDHAKNTVYLQMNSLKPEDTAVYYCNTLGRLTGRYGWSSKYYYWGQGTQVTVSS”, the “polyreactivity (PSR sort gate)” value is on record as “high polyreactivity”.

Consider “QVQLVESGGGLVQAGGSLRLSCAASGRTFPPYAMGWYRQAPGKERELVAAIRWSGGDTYYADSVKGRFTISRDNAKNTVYLQMNSLKPEDTAVYYCNAVYYSYSYGYNYWGQGTQVTVSS”, for which the “polyreactivity (PSR sort gate)” value is “high polyreactivity”.

As to “QVQLVESGGGLVQAGGSLRLSCAASGRTFPQYAMGWYRQAPGKERELVASITSRSGRTYYADSVKGRFTISRDNAKNTVYLQMNSLKPEDTAVYYCNAVSSWWYMNYWGQGTQVTVSS”, the “polyreactivity (PSR sort gate)” value is “high polyreactivity”.

For “QVQLVESGGGLVQAGGSLRLSCAASGRTFPRNAMGWYRQAPGKERELVAAISYGGGRTYYADSVKGRFTISRDNAKNTVYLQMNSLKPEDTAVYYCATVRRTDYPLGMDYWGQGTQVTVSS”, the “polyreactivity (PSR sort gate)” value was “high polyreactivity”.

On to “QVQLVESGGGLVQAGGSLRLSCAASGRTFPRNAMGWYRQAPGKERELVAAISYGGGRTYYADSVKGRFTISRDYAKNTVYLQMNSLKPEDTAVYYCATVRRTDYPLGMDYWGHGTQVTVSS”, for which the “polyreactivity (PSR sort gate)” value is “high polyreactivity”.

On to “QVQLVESGGGLVQAGGSLRLSCAASGRTFPRNGMGWYRPAPGQERELVAAIRYSGGSTYYADSVKGRFTISRDNAKNTVYLQMNSLKPEDTAVYYCAAEYRRALGVDYWGQGTQVTVSS”, for which the “polyreactivity (PSR sort gate)” value was “high polyreactivity”.

As to “QVQLVESGGGLVQAGGSLRLSCAASGRTFPSYTMGWSRQAPGKERELVAAITWTGGSTYYADSVKGRFTISRDNAKNTVYLQMISLKPEDTAVYYCADYDYWGHGTQVTVSS”, the “polyreactivity (PSR sort gate)” value is “low polyreactivity”.

In the case of “QVQLVESGGGLVQAGGSLRLSCAASGRTFPVNAMGGYRQAPGKERELVAVINWGGTSTYYADSVKGRFTISRDNAKNTVYLQMNSLKPEDTAVYYCAARARYPGVGYNYWGQGTQVTVSS”, the “polyreactivity (PSR sort gate)” value was “high polyreactivity”.

Consider “QVQLVESGGGLVQAGGSLRLSCAASGRTFPVYAMGWYRQAPGKERELVAAITRSDDSTYYADSVKGRFTISRDNAKNTVYLQMNSLKPEDTAVYYCARRSRESYEYDYWGQGTQVTVSS”, for which the “polyreactivity (PSR sort gate)” value is listed as “low polyreactivity”.

As for “QVQLVESGGGLVQAGGSLRLSCAASGRTFPVYDMGWYRQAPGKERELVAGITGSGGRTYYADSVKGRFTISRDNAKNTVYLQMNSLKPEDTAVYYCAADRNLYWDQHEYWGQGTQVTVSS”, the “polyreactivity (PSR sort gate)” value is “low polyreactivity”.

As for “QVQLVESGGGLVQAGGSLRLSCAASGRTFPYNAMGWYRQAPGKERELVAAISWRGGSTYYADSVKGRFTISRDNAKNTVYLQMNSLKPEDTAVYYCNALYPVSYDHRGDYWGQGTQVTVSS”, the “polyreactivity (PSR sort gate)” value is given as “high polyreactivity”.

On to “QVQLVESGGGLVQAGGSLRLSCAASGRTFPYNAMGWYRQAPGKERELVAAITSSGGSTYYADSVKGRFTISRDNAKNTVYLQMNSLKPEDTAVYYFAKGYYSPNYYYWGQGTQVTVSS”, for which the “polyreactivity (PSR sort gate)” value is recorded as “high polyreactivity”.

Consider “QVQLVESGGGLVQAGGSLRLSCAASGRTFPYNTMGWYRQAPGKERELVASISYRGGTYYADSVKGRFTISRDNAKNTVYLQMNSLKPEDTAVYYCNAVYYFSPSYRGYYWGQGTQVTVSS”, for which the “polyreactivity (PSR sort gate)” value was “high polyreactivity”.

On to “QVQLVESGGGLVQAGGSLRLSCAASGRTFPYNVMGGYRQAPGKERELVASNDGSGGSTYYADSVKGRFTISRDNAKKTVYLQMNSLKPEDTAVYYCAAVYYQSGNYWYSYLGQSPYDYWGQGTQVTVSS”, for which the “polyreactivity (PSR sort gate)” value is reported as “low polyreactivity”.

In the case of “QVQLVESGGGLVQAGGSLRLSCAASGRTFPYYAMGWSRQAPGKERQLVAAISSSGGLTYYADSVKGRFTISRDNAKNTVYLQMNSLKPEDTAVYYFNVDAWYPYQGFLVGYYYWGQGTQVTVSS”, the “polyreactivity (PSR sort gate)” value was “low polyreactivity”.

For “QVQLVESGGGLVQAGGSLRLSCAASGRTFPYYAMGWYRQAPGKERELVAAISKRGGTTYYADSVKGRFTISRDNAKNTVYLQMNSLKPEDTAVYYCAKDSAYGWVAYDYWGQGTQVTVSS”, the “polyreactivity (PSR sort gate)” value is on record as “high polyreactivity”.

As for “QVQLVESGGGLVQAGGSLRLSCAASGRTFPYYAMGWYRQAPGKERELVAAISSSGGSTYYADSVKGRFTISRDNAKNTVYLQMNSLKPEDTEVYYCAAVYQFIKWGDRYEYWGQGTQVTVSS”, the “polyreactivity (PSR sort gate)” value was “high polyreactivity”.

As for “QVQLVESGGGLVQAGGSLRLSCAASGRTFPYYAMGWYRQAPGKERELVAAITWSGGSTYYADSVKGRFTISRDNAKNTVYLQMNSLKPEDTAVYYCAKDYSRWGWNMGYWGQGTQVTVSS”, the “polyreactivity (PSR sort gate)” value is recorded as “high polyreactivity”.

For “QVQLVESGGGLVQAGGSLRLSCAASGRTFPYYVMGWYRQAPGKERELVATISSSGRTYYADSVKGRFTISRDNAKNTVYLQMNSLKPEDTAVYYCAARFRWNQNYHFYSWGQGTQVTVSS”, the “polyreactivity (PSR sort gate)” value was “high polyreactivity”.

“QVQLVESGGGLVQAGGSLRLSCAASGRTFQDNVMGWYRQAPGKETELVAAINTSSGSTYYADSVKGRFTISRDNAKNTVYLQMNSLKPEDTAVYYCFSYDYDYWGQGTQVTVSS”: the “polyreactivity (PSR sort gate)” value is listed as “low polyreactivity”.

On to “QVQLVESGGGLVQAGGSLRLSCAASGRTFQGYAMGWYRQAPGKERDLVAAISTSGARTYYADSVKGRFTISRDNAKNTVYLQMNSLKPEDTAFYYCAAGGQGGDFGDDYWGQGTQVTVSS”, for which the “polyreactivity (PSR sort gate)” value is listed as “high polyreactivity”.
